Measured values from publication PMC10089223 (Proceedings of the National Academy of Sciences of the …, 2022).

B1: AtARF2-FL OPCA (D797-8S) (natural protein, Arabidopsis thaliana, UniProt Q94JM3 1-859, looked up)
chain: MASSEVSMKGNRGGDNFSSSGFSDPKETRNVSVAGEGQKSNSTRSAAAERALDPEAALYRELWHACAGPLVTVPRQDDRVFYFPQGHIEQVEASTNQAAEQQMPLYDLPSKLLCRVINVDLKAEADTDEVYAQITLLPEANQDENAIEKEAPLPPPPRFQVHSFCKTLTASDTSTHGGFSVLRRHADECLPPLDMSRQPPTQELVAKDLHANEWRFRHIFRGQPRRHLLQSGWSVFVSSKRLVAGDAFIFLRGENGELRVGVRRAMRQQGNVPSSVISSHSMHLGVLATAWHAISTGTMFTVYYKPRTSPSEFIVPFDQYMESVKNNYSIGMRFKMRFEGEEAPEQRFTGTIVGIEESDPTRWPKSKWRSLKVRWDETSSIPRPDRVSPWKVEPALAPPALSPVPMPRPKRPRSNIAPSSPDSSMLTREGTTKANMDPLPASGLSRVLQGQEYSTLRTKHTESVECDAPENSVVWQSSADDDKVDVVSGSRRYGSENWMSSARHEPTYTDLLSGFGTNIDPSHGQRIPFYDHSSSPSMPAKRILSDSEGKFDYLANQWQMIHSGLSLKLHESPKVPAATDASLQGRCNVKYSEYPVLNGLSTENAGGNWPIRPRALNYYEEVVNAQAQAQAREQVTKQPFTIQEETAKSREGNCRLFGIPLTNNMNGTDSTMSQRNNLNDAAGLTQIASPKVQDLSDQSKGSKSTNDHREQGRPFQTNNPHPKDAQTKTNSSRSCTKVHKQGIALGRSVDLSKFQNYEELVAELDRLFEFNGELMAPKKDWLIVYTDEENDMMLVGSSPWQEFCCMVRKIFIYTKEEVRKMNPGTLSCRSEEEAVVGEGSDAKDAKSASNPSLSSAGNS

Key:
[1] = target: AtARF2-DBD (DNA binding domain of Arabidopsis thaliana auxin response factor 2) (Arabidopsis thaliana)
[2] = target: the molecule itself
[3] = target: B1

Row | Kd [1] [nM] | Kd [3] [nM] | Molecule | Kd [2] [nM]
1 | 1900 |  | AtARF2-DBD (DNA binding domain of Arabidopsis thaliana auxin response factor 2) (domain or fragment) | 
2 |  |  | B1 | 410
3 |  | 16 | AtARF2-FL K2S (K737S) (natural protein, Arabidopsis thaliana, UniProt Q94JM3 1-859, looked up) MASSEVSMKGNRGGDNFSSSGFSDPKETRNVSVAGEGQKSNSTRSAAAERALDPEAALYRELWHACAGPLVTVPRQDDRVFYFPQGHIEQVEASTNQAAEQQMPLYDLPSKLLCRVINVDLKAEADTDEVYAQITLLPEANQDENAIEKEAPLPPPPRFQVHSFCKTLTASDTSTHGGFSVLRRHADECLPPLDMSRQPPTQELVAKDLHANEWRFRHIFRGQPRRHLLQSGWSVFVSSKRLVAGDAFIFLRGENGELRVGVRRAMRQQGNVPSSVISSHSMHLGVLATAWHAISTGTMFTVYYKPRTSPSEFIVPFDQYMESVKNNYSIGMRFKMRFEGEEAPEQRFTGTIVGIEESDPTRWPKSKWRSLKVRWDETSSIPRPDRVSPWKVEPALAPPALSPVPMPRPKRPRSNIAPSSPDSSMLTREGTTKANMDPLPASGLSRVLQGQEYSTLRTKHTESVECDAPENSVVWQSSADDDKVDVVSGSRRYGSENWMSSARHEPTYTDLLSGFGTNIDPSHGQRIPFYDHSSSPSMPAKRILSDSEGKFDYLANQWQMIHSGLSLKLHESPKVPAATDASLQGRCNVKYSEYPVLNGLSTENAGGNWPIRPRALNYYEEVVNAQAQAQAREQVTKQPFTIQEETAKSREGNCRLFGIPLTNNMNGTDSTMSQRNNLNDAAGLTQIASPKVQDLSDQSKGSKSTNDHREQGRPFQTNNPHPKDAQTKTNSSRSCTSVHKQGIALGRSVDLSKFQNYEELVAELDRLFEFNGELMAPKKDWLIVYTDEENDMMLVGDDPWQEFCCMVRKIFIYTKEEVRKMNPGTLSCRSEEEAVVGEGSDAKDAKSASNPSLSSAGNS | 230
